We go through 1 molecule from patent US20210017289A1 (AbbVie / Abbott, published 2021).

In assay [1] the target is T1, recombinant soluble human OX40 ECD (residues 1-216) (human, UniProt P43489 29-216).
T1 construct: Purchased from Creative Biomart and further purified by gel filtration; also called recombinant extracellular domain of human OX40
T1 sequence: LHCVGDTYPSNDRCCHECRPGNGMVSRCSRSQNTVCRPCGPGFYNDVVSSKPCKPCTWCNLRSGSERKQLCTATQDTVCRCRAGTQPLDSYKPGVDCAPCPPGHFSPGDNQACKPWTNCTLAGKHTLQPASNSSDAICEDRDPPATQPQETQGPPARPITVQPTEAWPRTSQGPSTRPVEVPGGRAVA
Briefly: SPR (Biacore T200, 25 °C), antibody captured by anti-Fc, OX40 ECD as analyte. Here is the method:
The binding kinetics of an anti-OX40 antibody to recombinant soluble OX40 ECD (extracellular domain) were determined by surface plasmon resonance-based measurements made on a Biacore T200 instrument (GE Healthcare) at 25° C. using an anti-Fc capture assay approach. Recombinant extracellular domains (ECDs) of human OX40 (residues 1-216) and rhesus macaque OX40 (residues 28-214) were purchased (Creative Biomart) and further purified by gel filtration using Superdex200 (GE Healthcare) in 10 mM 4-(2-hydroxyethyl)-1-piperazineethanesulfonic acid (HEPES), pH 7.4, 150 mM NaCl, 3 mM ethylenediaminetetraacetic acid (EDTA). Rhesus macaque (Macaca mulatta) OX40 is identical to cynomolgus monkey (Macaca fascicularis) OX40 (SEQ ID NO:2) at the amino acid level. Chip preparation and binding kinetic measurements were made in the assay buffer HBS-EP+(10 mM HEPES, pH 7.4, 150 mM NaCl, 3 mM EDTA, 0.05% Tween 20). For anti-Fc capture chip preparation, approximately 2000 Resonance Units (RU) of goat anti-human IgG Fc polyclonal antibody (Thermo Fisher Scientific Inc.), diluted to 25 μg/mL in 10 mM sodium acetate (pH 4.5), was directly immobilized across a CMS biosensor chip using a standard amine coupling kit according to manufacturer's instructions and procedures. Unreacted moieties on the biosensor surface were blocked with ethanolamine. For binding kinetics measurements each assay cycle consisted of the following steps: 1) capture of test anti-OX40 antibody on test surface only; 2) analyte injection (OX40 ECD or buffer only) over both reference and test surface, 240 μL at 80 μL/min, after which the dissociation was monitored for 900 seconds at 80 μL/min; 3) regeneration of capture surface by 10 mM Glycine-HCl, pH 1.5 injections over both reference and test surface. During the assay, all measurements were referenced against the capture surface alone (i.e., with no captured test antibody) and buffer-only injections were used for double referencing. OX40 injections ranged in concentration from 900 nM or 300 nM to 11.11 nM in a randomized 9- or 3-fold dilution series, respectively. Data were processed and fitted globally to a 1:1 binding model using Biacore T200 Evaluation software to determine the binding kinetic rate constants, kₐ (M⁻¹s⁻¹) and kd (s¹), and the equilibrium dissociation constant KD (M).
On the technique in general: SPR reads the build-up and loss of mass on a sensor chip optically.

In another assay the target is T2, Cyno OX40-Fc fusion (cynomolgus monkey, UniProt P43489 29-214 (human entry), limits assumed).
T2 construct: also called recombinant cynomolgus (cyno) OX40; not shown: Fc part of the fusion
T2 chain: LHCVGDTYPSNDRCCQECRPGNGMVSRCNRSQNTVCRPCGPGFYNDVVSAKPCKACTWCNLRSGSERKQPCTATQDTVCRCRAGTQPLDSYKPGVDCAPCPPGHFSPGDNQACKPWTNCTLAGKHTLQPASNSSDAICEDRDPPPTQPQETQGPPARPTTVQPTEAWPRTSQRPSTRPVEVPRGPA
Briefly: ELISA on plates coated with Cyno OX40-Fc fusion. Here is the method:
Immunolon 4×HB 96-well plates (Thermo Scientific) were coated with 1 μg/mL of Cyno OX40-Fc fusion at 4° C. overnight. Plates were blocked with PBS containing 1% bovine serum albumin (BSA) for 30 minutes at RT and then washed three times with PBST (PBS with 0.1% Tween 20). OX40-coated plates were then incubated with indicated concentrations of anti-OX40 antibody at room temperature for one hour. Plates were washed four times with PBST and then incubated for 1 hour at room temperature with 100 μL of goat anti-human FAB fragment specific-Biotin (Jackson ImmunoResearch) prepared to a dilution of 1:5000 in PBS containing 1% BSA. Plates were then washed five times in PBST and 100 μL of a 1:1000 dilution of streptavidin-HRP (Thermo Scientific) was added to each well and incubated for 30 minutes at room temperature. Plates were then washed five times in PBST and 100 μL of TMB One component (Surmodics) were added to each well and incubated at room temperature until color developed (approximately 5-10 minutes). Optical density (OD) was read at 650 nm (Molecular Devices Spectromax190).

Assay [2] addresses T3, human OX40-FC (R&D Systems) (human, UniProt P43489 29-216).
T3 construct: Purchased reagent; also called recombinant human OX40; not shown: Fc part of the purchased fusion
T3 sequence: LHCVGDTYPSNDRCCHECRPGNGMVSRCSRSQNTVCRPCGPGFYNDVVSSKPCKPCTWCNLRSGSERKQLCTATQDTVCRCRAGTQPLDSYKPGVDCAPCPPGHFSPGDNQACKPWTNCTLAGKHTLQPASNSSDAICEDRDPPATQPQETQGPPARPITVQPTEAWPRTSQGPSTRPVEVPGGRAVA
In words: ELISA on plates coated with human OX40-Fc. Here is the method: Immunolon 4×HB 96-well plates (Thermo Scientific) were coated with 1 μg/mL of human OX40-FC (R&D Systems) at 4° C. overnight. Plates were blocked with phosphate-buffered saline (PBS) containing 1% bovine serum albumin (BSA) for 30 minutes at room temperature and then washed three times with PBST (PBS with 0.1% Tween 20) using a plate washer. OX40-coated plates were then incubated with indicated concentrations of test antibody at room temperature for one hour. Plates were washed four times with PBST and then incubated for 1 hour at room temperature with 100 μL of goat anti-human Fab fragment specific-Biotin (Jackson ImmunoResearch) prepared to a dilution of 1:5000 in PBS containing 1% BSA. Plates were then washed five times in PBST and 100 μL of a 1:1000 dilution of streptavidin-horseradish peroxidase (HRP) (Thermo Scientific) was added to each well and incubated for 30 minutes at room temperature. Plates were subsequently washed five times in PBST and 100 μL of TMB One component (Surmodics) were added to each well and incubated at room temperature (RT) until color developed (approximately 5-10 minutes). Optical density (OD) was read at 650 nm (Molecular Devices Spectromax190).

B1: Hu3738 (antibody, V domains shown)
VH: EVQLVESGGGLVQPGGSLRLSCAASGFTFSRYGMSWVRQAPGKGLELVATINSNGGRTYYPDSVKGRFTISRDNAKNSLYLQMNSLRAEDTAVYYCAREGITTAYAMDYWGQGTTVTVSS
VL: DIVMTQSPDSLAVSLGERATINCKASQSVDYDGDSYMHWYQQKPGQPPKLLIYAASILESGVPDRFSGSGSGTDFTLTISSLQAEDVAVYYCQQSNEDPRTFGGGTKVEIKR
notes: Humanized antibody; also called exemplary anti-OX40 antibody Hu3738; Hu3738 VH.1b / Hu3738 VL.1
With B1, in assay [1], the dissociation constant (Kd) (as a rule, the free concentration of one partner at which half of the binding sites on the other are occupied at equilibrium, for simple one-to-one binding) was 42000 pM and the off-rate (koff) – broadly, the rate constant with which the complex falls apart – turned out to be 0.042 s⁻¹. Moreover, the EC50 (as a rule, the concentration giving half of the maximal effect) with Cyno OX40-Fc fusion was 39 pM. Also, the EC50 in assay [2] was 44 pM.
